Test results: IntAct's records for PubMed 12172031

B1: Coronatine-insensitive protein 1 (Arabidopsis thaliana (Mouse-ear cress)), O04197 (parent)
chain: MEDPDIKRCKLSCVATVDDVIEQVMTYITDPKDRDSASLVCRRWFKIDSETREHVTMALCYTATPDRLSRRFPNLRSLKLKGKPRAAMFNLIPENWGGYVTPWVTEISNNLRQLKSVHFRRMIVSDLDLDRLAKARADDLETLKLDKCSGFTTDGLLSIVTHCRKIKTLLMEESSFSEKDGKWLHELAQHNTSLEVLNFYMTEFAKISPKDLETIARNCRSLVSVKVGDFEILELVGFFKAAANLEEFCGGSLNEDIGMPEKYMNLVFPRKLCRLGLSYMGPNEMPILFPFAAQIRKLDLLYALLETEDHCTLIQKCPNLEVLETRNVIGDRGLEVLAQYCKQLKRLRIERGADEQGMEDEEGLVSQRGLIALAQGCQELEYMAVYVSDITNESLESIGTYLKNLCDFRLVLLDREERITDLPLDNGVRSLLIGCKKLRRFAFYLRQGGLTDLGLSYIGQYSPNVRWMLLGYVGESDEGLMEFSRGCPNLQKLEMRGCCFSERAIAAAVTKLPSLRYLWVQGYRASMTGQDLMQMARPYWNIELIPSRRVPEVNQQGEIREMEHPAHILAYYSLAGQRTDCPTTVRVLKEPI

Variants of: B1
Settings: with skp1a_arath SKP1A

Variant	effect of a mutation on the interaction
E22A	decreasing interaction

Variants of: B1
Settings: with skp1b_arath SKP1B

Variant	effect of a mutation on the interaction
E22A	decreasing interaction

Variants of: B1
Settings: with cul1_arath CUL1, Q94AH6
Sequence of cul1_arath CUL1, Q94AH6 (Q94AH6 whole entry): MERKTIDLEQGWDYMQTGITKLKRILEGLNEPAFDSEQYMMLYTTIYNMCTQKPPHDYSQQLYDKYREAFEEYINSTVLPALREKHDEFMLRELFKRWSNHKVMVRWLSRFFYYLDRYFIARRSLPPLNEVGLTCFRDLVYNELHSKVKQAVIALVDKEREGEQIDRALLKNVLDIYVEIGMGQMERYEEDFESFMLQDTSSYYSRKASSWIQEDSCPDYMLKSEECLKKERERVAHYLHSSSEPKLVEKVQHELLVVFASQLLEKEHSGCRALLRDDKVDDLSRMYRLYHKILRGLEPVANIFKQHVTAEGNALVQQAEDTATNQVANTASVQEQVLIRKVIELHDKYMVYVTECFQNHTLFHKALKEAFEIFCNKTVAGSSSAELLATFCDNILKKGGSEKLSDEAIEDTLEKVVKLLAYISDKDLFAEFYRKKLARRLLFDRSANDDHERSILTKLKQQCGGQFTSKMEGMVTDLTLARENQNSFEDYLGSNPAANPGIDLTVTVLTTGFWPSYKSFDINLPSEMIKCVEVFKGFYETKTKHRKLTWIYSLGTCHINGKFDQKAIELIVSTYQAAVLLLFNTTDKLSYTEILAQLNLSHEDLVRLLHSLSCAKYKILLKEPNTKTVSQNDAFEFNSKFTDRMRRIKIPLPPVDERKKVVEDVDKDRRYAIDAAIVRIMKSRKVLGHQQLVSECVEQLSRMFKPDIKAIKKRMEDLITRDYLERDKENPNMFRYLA

Variant	effect of a mutation on the interaction
E22A	decreasing interaction
